{
  "source": "the nanobody polyreactivity screen of Harvey et al. (2022)",
  "data": [
    {"experiment": "yeast display, Sf9 membrane polyspecificity reagent, FACS + sequencing; frameworks hold sequencing errors", "method_in_brief": "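Galactose induction of a Saccharomyces cerevisiae BJ5465 synthetic nanobody display library ran 36–48 hours. The cells were then stained for 1 hour at 4 °C with 10% biotinylated, detergent-solubilized Sf9 membrane reagent, pulled down on streptavidin microbeads and FACS-sorted into low and high (top ~1%) gates on expression and reagent-binding fluorescence. Labels for polyreactivity follow the gate of origin.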", "values": [
      {"sequence": "QVQLVDSGGGLVQAGGSLRLSCAASGSIFYYYAMVWYRQAPGKERELVAAISRNGGSTSYADSVKGRFTISRDNAKNTVYLQMNSLKPEDTAVYYCAVRKFHYFRYEYWGQGTQVTVSS", "polyreactivity (PSR sort gate)": "low polyreactivity"},
      {"sequence": "QVQLVDSGGGLVQAGGSLRLSCAASGSILAGNVMGWYRQAPGKERELVASITFRGSRTYYADSVKGRFTISRDNAKNTVYLQMNSLKPEDTAVYYCNADVWASGSRGEGYWGQGTQVTVSS", "polyreactivity (PSR sort gate)": "low polyreactivity"},
      {"sequence": "QVQLVDSGGGLVQAGGSLRLSCAASGSILAINTMGWYRPAPGKEREFVAAISAGGTSTYYADSVKGRFTISRDNAKNTVSLQMNSLKPEDTAVYYCAAIFIIYRTGYRRYYWGQGTQVTVSS", "polyreactivity (PSR sort gate)": "high polyreactivity"},
      {"sequence": "QVQLVDSGGGLVQAGGSLRLSCAASGSILYPYAMGWDRQAPGKEREFVAAITYGGGRTYYADSVKGRFTISRDNAKNTVYLQMNSLKPEDTAVYYCAAKSVYAGRRRIYYLWYDYWGQGTQVTVSS", "polyreactivity (PSR sort gate)": "high polyreactivity"},
      {"sequence": "QVQLVDSGGGLVQAGGSLRLSCAASGSIYGFYAMGWYRQAPGKERELVATIRTSGGNTYYADSVKGRFTISRDNAKNTVYLQLKSMKPEDTAVYYCAAAGYLYSGDVHYLYTYEYWGQRTQVTVSS", "polyreactivity (PSR sort gate)": "low polyreactivity"},
      {"sequence": "QVQLVDSGGGLVQAGGSLRLSCAASGSTFDGNTMGWYRQAPGKERELVATITNSGGNTYYADSVKGRFTISRDNAKNTVYLQMNSLKPEDTAVYYCNARRTSWRRLGNFYYWGQGTQVTVSS", "polyreactivity (PSR sort gate)": "high polyreactivity"},
      {"sequence": "QVQLVDSGGGLVQAGGSLRLSCAASGSTFITNTMGWDRQSPGKDRELVAAISQSGTRTYYANSVKGRFTISRDNAKNTVYLQMNSLKPEDTAVYYCAADRQRYTSSSRKGLGYCGQGTQVTVSS", "polyreactivity (PSR sort gate)": "high polyreactivity"},
      {"sequence": "QVQLVDSGGGLVQAGGSLRLSCAASGSTFRLYAMGWYRQAPGKERALVAAITRGGITYYADSVKGRFTISRDNAKNTVYFQMNSLKPEDTAVYYCAATTFGPYALYPRYYYWGQGTQVTVSS", "polyreactivity (PSR sort gate)": "high polyreactivity"},
      {"sequence": "QVQLVDSGGGLVQAGGSLRLSCAASGSTFRRNAMGWYRQAPGKERELVAAITSSGGGSTYYADSVKGRFTISRDNAKNSVYLQMNSLKPEDSAVYYCAKDFWYRSYDYWGQGTQVTVSS", "polyreactivity (PSR sort gate)": "low polyreactivity"},
      {"sequence": "QVQLVDSGGGLVQAGGSLRLSCAASGSTFTYNSMGGYRQAPGKERELVAAITWSSDITYYADSVKGRFTISRDNAKNTVYLQMNSLIAEDTAVYYCAAYLFGPSIDDYPAFYYDYGYWGQGTQVTVSS", "polyreactivity (PSR sort gate)": "low polyreactivity"},
      {"sequence": "QVQLVDSGGGLVQAGGSLRLSCAASGSTFYYNAMGWYRQAPGKERELVARISRSGGSTYADSVKGRFTISRDNAKNTFYLQMNSLKPEDTAVYYCNADAYGTPEFTSYAVCYDYWGQGTQVTVSS", "polyreactivity (PSR sort gate)": "low polyreactivity"},
      {"sequence": "QVQLVDSGGGLVQAGGSLRLSCAASGSTFYYNAMGWYRQAPGKERELVARISRSGGSTYADSVKGRFTISRDNAKNTVYLQMNSMKPEDTAVYYCNAVAYGTPEFTSYAVRYDYWGQGTQVTVSS", "polyreactivity (PSR sort gate)": "low polyreactivity"},
      {"sequence": "QVQLVDSGGGLVQAGGSLRLSCAASGSTRRGYAMGWYRQAPGKERELVASISRRGGSTYYADSVKGRFTISRDNAKNTVYLQMKSLKTEVTAVYYCAATGRRGYGYGYWGQGTQVTVSS", "polyreactivity (PSR sort gate)": "high polyreactivity"},
      {"sequence": "QVQLVDSGGGLVQAGGSLRLSCAASGTTFYSYAMGWYRQAPGKERELVAAISSSGDSTYYADSVKGRFTISRDNAKNTVYLQMNSLKPEDTAVYYCAARKGELWFPQGGYNYWGQGTQVTVLS", "polyreactivity (PSR sort gate)": "low polyreactivity"},
      {"sequence": "QVQLVDSGGGLVQAGGSLRLSCAASGYTFEAYAMGWYRQAPGKERELVAAINYSGGSTYADSVKGRFTISRDNAKNTVYLQMNSLKPEDTAVYYCATRLYGYWPYGFDYWGQGTQVTVSS", "polyreactivity (PSR sort gate)": "low polyreactivity"},
      {"sequence": "QVQLVDSGGGLVQAGGSLRLSCAAYGSIFKYYCMGWYRQAPGKERELVATISKRGGSTYYADSVKGRFTISRDNAKNSVYLQMNSLKPEDTAVYYCAKDSPALRPLTWQQLYDFWGQGTQVTVSS", "polyreactivity (PSR sort gate)": "high polyreactivity"},
      {"sequence": "QVQLVDSGGGLVQAGGSLRLSCAAYGSNLYYAMGWYIQAPGKERELVATITRGGSTYYADSVKGRFTISRDNAKNTVYLQMNSLKPEDTAVYYCAARRAVRVGYYWHDISSYDYWGQGTQVTVSS", "polyreactivity (PSR sort gate)": "low polyreactivity"},
      {"sequence": "QVQLVDSGGGLVQAGGSLRLSCAAYGSTDKPNAMGWYRQAPGKQRELVAANSGSGGSTYYADTVKGRFTISRDNAKNTVYLQMNSLKPEDTAVYYCAAKRTGNGYPRSGYSRYEYWGQGTQVTVSS", "polyreactivity (PSR sort gate)": "high polyreactivity"},
      {"sequence": "QVQLVDSGGGLVQAGGSLRLSCADSGFTFSWNVMGRYRQAPGKEREYVAAISTSYGGRYYADSVKGRFTISRDNAKNTVDLQMNSLKPEDTAVYYCNDDIVGFQWGYDYWGQGTQVTVSA", "polyreactivity (PSR sort gate)": "low polyreactivity"},
      {"sequence": "QVQLVDSGGGLVQAGGSLRLSCPASGSTFQRYAMGWYRQAPGKERELVAAISSSGVRTYYADSVKGRFTISRDNAKNTVYLQMNSLKPEDTAVYYCATGYIFRYRQSAYDYWGQGTQVTVSS", "polyreactivity (PSR sort gate)": "high polyreactivity"},
      {"sequence": "QVQLVDSGGGLVQAGGSLRLSCSASGIIIKWYTMVWYRQAPGKEREFVAAISYGGGSTSYADSVKGRFTISRDNAKNTVYLQMNSLKPEDTAVYYCAVVWQGAYSRTNYYYWGQGTQVTVSS", "polyreactivity (PSR sort gate)": "low polyreactivity"},
      {"sequence": "QVQLVDSGGGLVQAGGSLRLSCSASGSTFSVYAMGWYRQAPGKERELVAAITSGGSTNYADSVKGRFTISRDNAKNTVYLQMNSLKPEDTAVFYCNAYYVLIGYQPHWGYYWGQGTQVTVSS", "polyreactivity (PSR sort gate)": "low polyreactivity"},
      {"sequence": "QVQLVDSGGGLVQAGGSLRLSCSASGYNFIGYAMGWYRQAPGKERELVATITSGGSTNYADSVKGRFTISRDNAKNTVYLQMNSLNPEDTAVYYCAAGRGRYFYSWRYLYAIFDYWGQGTQVTVSS", "polyreactivity (PSR sort gate)": "low polyreactivity"},
      {"sequence": "QVQLVDSGGGLVQAGGSLRLTCAASGRIFYYNPMGWNRQAPGIVRELVDAINMISGSTYYADSVKGRFTISRDNAKNSVYFQMNSLKPEDTAVYYCAAQGVDTRIFFSFGFDYWGQGTQVNVSS", "polyreactivity (PSR sort gate)": "high polyreactivity"},
      {"sequence": "QVQLVDSGGGLVQAGGSLRVSCAASGNTFVTNAMGWSRQAPGKERELDAAITASVTSTYYADSVKGRFTISRDNAKITVYLQLNSLKPEDPAVYYCAAKTYSRKRVRMDYWGQGTQVTVSS", "polyreactivity (PSR sort gate)": "high polyreactivity"},
      {"sequence": "QVQLVDSGGGLVQAGGSLRVSCAASGSILPLNAMGWYRQGPGKERELVADISWSGGDTYYADSVKGRFTISRDNAKNTVYLQMNSLKPEDTSVYYCAADLHTELYKMDYWGQGTQVTVSS", "polyreactivity (PSR sort gate)": "low polyreactivity"},
      {"sequence": "QVQLVDSGGGLVQAGGSRRVSCAASAFTFLWNAMGWYRQAPGKEREMVAAINGNSGNTYYADSVKGRFTLSVDNAKNTVYLQMNSMKAEDTAVYYCAKQGNNIPCYRPYGDYYYWGQGTQVTVSS", "polyreactivity (PSR sort gate)": "low polyreactivity"},
      {"sequence": "QVQLVDSGGGLVQAGGTLRLSCAASGRTIYRNDMGWYRQAPGQERELVAAITSSGGTTYADSVKGRFTISRDNAKNTGYLQMNSLKPEDTAVYYCAAVYAYPNIYDYWGQGTQVTVSS", "polyreactivity (PSR sort gate)": "low polyreactivity"},
      {"sequence": "QVQLVDSGGGLVQAGVSLRLSCAASGFTFVFYAMGWYRQAPGKERELVAAISGRGGSTYYADSVKGRFTISRDNAKNTVYLQMNSLKPEDTAVYYCNALYVYRSVANFDYWGQGTQVTVSS", "polyreactivity (PSR sort gate)": "high polyreactivity"},
      {"sequence": "QVQLVDSGGGLVQAVGSLRLSCAASGGIFVPNAMGWYRQAHGKVRELVAAIYYSGGRTYYADSVKGSFTISRDNAKNTVYLQMNRLKPEDTAVYYCAAEYWFVFHHYNYFGQGTQVTVSS", "polyreactivity (PSR sort gate)": "high polyreactivity"},
      {"sequence": "QVQLVDSGGGLVQAVGSLRLSCAASGITFDEYAMGWYRQAPGKERELVAAISVSGGDTYYADSVKGRFTISRDNAKNNVYLQMNSLKPEDTAVYYCNARWGTPYYIQDFDYWGLGTQVTVSS", "polyreactivity (PSR sort gate)": "low polyreactivity"},
      {"sequence": "QVQLVDSGGGVVQAGGSLRLSCPASGIILRRYAMGWYRQAQGKERELVARISYRGGRTNYADSVKGRFTISRDNAKNTVYLQMNSLKPEDTAVYYCAAVAWDYHEGTAYNYWGQGTQVTVSS", "polyreactivity (PSR sort gate)": "high polyreactivity"},
      {"sequence": "QVQLVDSGGGVVQEGGSLRLSCAASGIISLFNVMGWYRQAPGKERELVASITGRGGSTFYADSVKGRFTISRDNAKNTVYLQMNSLQPEESGVYYCATDTGDTYPVNGLYDYWGHGTQVTVSS", "polyreactivity (PSR sort gate)": "low polyreactivity"},
      {"sequence": "QVQLVDSGGRLVQAGGSLRLSCAASGFIFGTNAMGWYRQAPGKERELVASISSTGGSTYYADSVKGRCTISRDNAKNTVYLQMNILKPEETAVYYCAADPYPEYIRYLPGVDYSGQGTQVTVSS", "polyreactivity (PSR sort gate)": "low polyreactivity"},
      {"sequence": "QVQLVDSGGVLVQAGGSLRLICAASGNTFAYYTLGWYRQAPGKEMELVAAIDYSGGSTYYADSVKGRFTISRDNAKNTVYLQMNSLKPEDTAVYYCASDYRWHFSESLGWFYEYGYWGQGTQVTVSS", "polyreactivity (PSR sort gate)": "low polyreactivity"},
      {"sequence": "QVQLVDSRGGLVQAGGSLRLSCAASGIIFGYYAMGWYRQAPGKERELVAAITWSGGSTYYADSVKGSFTISRDNAKNTVYLQMNSLKPEDTAVYYCAASAYVQPYDYWGQGTQVTVSS", "polyreactivity (PSR sort gate)": "high polyreactivity"},
      {"sequence": "QVQLVDSRGGLVQAGGSLRLSCAASGSTYLRNVMGSYRQAPGKERELVAAISSRGGSTHYADSVKGRFTISRDNAKNTVYLQMNSMKPEDTAVYYSNAERTAAQYVRAAYDFWGEGTQVTVSS", "polyreactivity (PSR sort gate)": "low polyreactivity"},
      {"sequence": "QVQLVDSRRGLVQAGGSLRLSCAASGRIFGYNAMGWYREAPGKVRELVAAISSGGGTNYADSVKGRFTISRDNAKNPVYLQMHSLKPEDTAVYYCAVRRRRYHTYYRGYDYWGQGTQVTVSS", "polyreactivity (PSR sort gate)": "low polyreactivity"},
      {"sequence": "QVQLVDSVGGLVQAGGSLPLICAASGSTFGNYAKGWYRQAPGKERELVAAINSGDSTSYADSVKGRFTISRDNANNTVYLHMNSLKPEDTAVYYCSVRPRRNQYGYWGQGTQLTVSS", "polyreactivity (PSR sort gate)": "low polyreactivity"},
      {"sequence": "QVQLVDSVGGLVQAGGSLRLSCAASGSTFVYNTMGWYRQEPGKEREMVAAISYRGSTYYADSVKGRFTISRENAKNTVFLQMNSLKPEDNAVYYCNAPRRQYEYDYWGQGTQVTVSS", "polyreactivity (PSR sort gate)": "high polyreactivity"},
      {"sequence": "QVQLVDTGGGLVQAGGSLRLSCAASGITFYFYVMGWYRQAPGKERELVADISTSDDSTYYADSVKGRFTISRDNAKNTVYLQMNSLKPEDTAVYYCATATRTYSAWYEYVYWGQGTQVTVSS", "polyreactivity (PSR sort gate)": "low polyreactivity"},
      {"sequence": "QVQLVEAGGGLDQPGGSLRLSCAASGSTFYVNTRRWYIQAPGQELELVAAISSTGSSTYFADSVKGRFTISRDNAKNTVYLQMNSLKPEDTAVYYCAAESYRWWYLYDYYYWGQGTQVTVSS", "polyreactivity (PSR sort gate)": "high polyreactivity"}
    ]}
  ]
}
